According to PMC4726530 (PLoS ONE, 2016):
Values belong to the molecule of their own block, whether it stands above or below them.

Legend:
[1] = biological target: T1, GAOR2 (FAD site in M-subunit) (Sulfurisphaera tokodaii, UniProt Q974U9); experiment: X-ray crystal structure, […] Å; assay type: binding; conditions: bound in M-subunit; co-purified with native enzyme; crystals at pH 4.5
T1 construct: gene ST0562; same native (LMS)2 complex as P2; M-subunit 278 aa holds FAD; Putative oxidoreductase iron-sulfur subunit (S-subunit)
T1 sequence (Q974U9 1-278): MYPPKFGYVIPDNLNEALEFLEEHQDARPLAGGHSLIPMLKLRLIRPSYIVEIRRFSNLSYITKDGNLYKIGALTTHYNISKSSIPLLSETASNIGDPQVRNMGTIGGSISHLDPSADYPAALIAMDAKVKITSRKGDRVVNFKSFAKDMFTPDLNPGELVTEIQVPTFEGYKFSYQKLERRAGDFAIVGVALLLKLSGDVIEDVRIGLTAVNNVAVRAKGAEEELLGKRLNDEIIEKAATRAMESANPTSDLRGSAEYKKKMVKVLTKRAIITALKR
T1 sequence (Q96Y29 1-706 partner): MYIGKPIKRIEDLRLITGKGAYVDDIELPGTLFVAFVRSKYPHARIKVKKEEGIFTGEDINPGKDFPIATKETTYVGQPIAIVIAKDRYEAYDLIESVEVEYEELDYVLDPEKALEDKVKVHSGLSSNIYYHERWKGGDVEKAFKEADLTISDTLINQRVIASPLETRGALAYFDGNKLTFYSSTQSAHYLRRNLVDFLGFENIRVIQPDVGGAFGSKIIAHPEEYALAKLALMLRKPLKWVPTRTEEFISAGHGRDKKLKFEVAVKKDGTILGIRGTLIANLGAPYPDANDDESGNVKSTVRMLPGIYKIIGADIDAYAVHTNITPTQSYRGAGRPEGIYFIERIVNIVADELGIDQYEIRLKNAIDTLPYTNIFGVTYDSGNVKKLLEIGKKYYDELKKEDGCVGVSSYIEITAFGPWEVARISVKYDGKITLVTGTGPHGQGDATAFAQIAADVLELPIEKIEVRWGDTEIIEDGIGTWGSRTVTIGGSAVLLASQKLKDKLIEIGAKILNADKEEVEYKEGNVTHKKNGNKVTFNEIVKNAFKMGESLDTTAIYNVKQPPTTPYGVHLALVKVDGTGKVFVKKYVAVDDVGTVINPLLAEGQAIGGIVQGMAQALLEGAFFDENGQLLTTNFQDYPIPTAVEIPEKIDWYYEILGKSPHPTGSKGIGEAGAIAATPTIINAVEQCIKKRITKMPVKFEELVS
T1 sequence (Q974V0 1-168 partner): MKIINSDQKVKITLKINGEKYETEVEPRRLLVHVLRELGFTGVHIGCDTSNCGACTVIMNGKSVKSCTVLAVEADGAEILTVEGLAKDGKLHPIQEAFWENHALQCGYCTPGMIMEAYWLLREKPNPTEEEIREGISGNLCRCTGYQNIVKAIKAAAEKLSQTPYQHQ

[2] = biological target: LMS hetero-trimer unit of GAOR1 (STK17810/STK17830/STK17820) (Sulfolobus tokodaii (endogenous, purified from the cells)); experiment: SEC; Superdex 200 10/30 gel filtration in buffer II (20 mM Tris-HCl pH 7.5, 0.25 M NaCl), molecular weights estimated against protein standards; oligomer of LMS hetero-trimer units
[3] = biological target: LMS hetero-trimer unit of GAOR2 (STK23390/STK05620/STK05610) (Sulfolobus tokodaii (endogenous, purified from the cells)); experiment: as above
[4] = biological target: LMS hetero-trimer unit of GAOR2 (STK23390/STK05620/STK05610) (Sulfolobus tokodaii (endogenous, purified from the cells)); experiment: crystal structure; GAOR2 purified from S. tokodaii, 8 mg/mL, sitting drop at 25°C, 0.1 M Na-acetate pH 4.5, 0.2 M CH3COONH4, 15% PEG 4,000; 2.2 Å; one LMS hetero-trimer in the asymmetric unit, (LMS)2 by crystallographic 2-fold symmetry
purified protein [5] = substrate: O=C[C@H](O)CO; experiment: purified protein; conditions: 0.1 mM DCPIP as electron acceptor, 50 mM MOPS-NaOH pH 7.0, 70°C
purified protein [6] = substrate: O=CC(O)COP(=O)(O)O; experiment: purified protein; assay type: biochemical, Sulfurisphaera tokodaii; conditions: 2 mM MV as electron acceptor, 50 mM MOPS-NaOH pH 7.0, 80°C
purified protein [7] = substrate: O=CCc1c[nH]c2ccccc12; experiment: purified protein; assay type: biochemical, Sulfurisphaera tokodaii; conditions: 2 mM MV as electron acceptor, 50 mM MOPS-NaOH pH 7.0, 80°C
[8] = biological target: the molecule itself; experiment: crystal structure; GAOR2 purified from S. tokodaii, 8 mg/mL, sitting drop at 25°C, 0.1 M Na-acetate pH 4.5, 0.2 M CH3COONH4, 15% PEG 4,000; 2.2 Å; one LMS hetero-trimer in the asymmetric unit, (LMS)2 by crystallographic 2-fold symmetry
purified protein [9] = substrate: CC=O; experiment: purified protein; assay type: biochemical, Sulfurisphaera tokodaii; conditions: 2 mM MV as electron acceptor, 50 mM MOPS-NaOH pH 7.0, 80°C

Molecule: Cc1cc2nc3c(=O)[nH]c(=O)nc-3n(C[C@H](O)[C@H](O)[C@H](O)COP(=O)(O)OP(=O)(O)OC[C@H]3O[C@@H](n4cnc5c(N)ncnc54)[C@H](O)[C@@H]3O)c2cc1C [FAD]
X-ray crystal structure, 2.2 Å [1]: one Mo-PCD (L-subunit), one FAD (M-subunit), two [2Fe-2S] clusters

stoichiometry N [2]: 4
Molecule: LMS hetero-trimer unit of GAOR1 (STK17810/STK17830/STK17820) (complex)

stoichiometry N [3]: 2 | stoichiometry N [4]: 2
Molecule: LMS hetero-trimer unit of GAOR2 (STK23390/STK05620/STK05610) (complex)

B1: GAOR3 (Sulfurisphaera tokodaii str. 7) (protein)
chain: MYVGQRVKRKEDLKLITGSGRYIDDIEIPGNLYIAILRSSVAHAKLKKIEYSDVLKLNGVYGVITGLTIPVENRPRNFPMAKDEILYMGQPIAAVLAKDRYVAVDALDYISYDYEELPAVIDPEEAINSKVKAIEDYDNIIYKKTYSGGNAEEAYEKSDVKIEEKLVISRVYAAPMEPRGLVVDYQQDRLTVYASTQSPHYMRSFLLSAFGDKVNDIRVIQADVGGAFGSKLFPYPEDYIAVFAALTYKRPVKLVNTRRDDLFSTYHSRGQIHKVKVGASKDGKINSILDDLIIDLGAAWHGTYLADIPATLITGPYDIKNAKVNVFGVLTNKTPLDQYRGAGRPEAAFVYERIMDIVADELKIDPIELRRKNIIQSTPYKNVMGLTYDSGDYNALLTKAESYYREMEQRAEELRRQGKRVGVGLSFYIEQNNFGPWESASVRLLSNGKVEVVIGAAPHGQGTATGIAQIVADELEISIDDVEVTWGDTDKISNAFGTYGSRSLTLAGNAALLASRKLKENIMKLAAQFMKSDVEELQYKDGKVFNPKTGKSMTLKEIAIKVTSNLGGVWRYKAEPTLEATASFGFDNYTFPYGSHIAMVEVTDEGVVKVLDYVAIDDIGVVVNPMLAEGQVHGGVIQGFGETLLEQIVYDNNGNLLTSTFADYLIPSAVESFNMKWFYTEIGKSNAPLPAKGIGEGATIGAPPALIRAIERAIGKRLTALPVKMEELSK
notes: LMS hetero-trimer; L 730 aa, M 278 aa, S 168 aa; 85 kDa by gel filtration; M-subunit); Putative oxidoreductase iron-sulfur subunit (S-subunit)
Km (purified protein [5]; enzyme about 70% pure): 11 ± 0 µM | kcat (purified protein [5]; enzyme about 70% pure): 3.58 ± 0.11 s⁻¹ | Km (purified protein [6]; enzyme about 70% pure): 3.5 ± 1.1 µM | kcat (purified protein [6]; enzyme about 70% pure): 0.43 ± 0.03 s⁻¹ | Km (purified protein [7]; enzyme about 70% pure): 370 ± 390 µM | kcat (purified protein [7]; enzyme about 70% pure): 3.58 ± 2.49 s⁻¹

B2: STK23390, molybdo-pyranopterin L-subunit of glyceraldehyde oxidoreductase GAOR2 (natural protein, UniProt Q96Y29 1-706, looked up)
chain: T1 sequence (Q96Y29 1-706 partner)
notes: STK23390, L-subunit of GAOR2, Sulfolobus tokodaii; Carries Mo-PCD; Cys405 and Cys689 form a disulfide bridge; also called L-subunit of GAOR2; ST23390
stoichiometry N [8]: 2 | Km (purified protein [5]): 30 ± 9 µM | kcat (purified protein [5]): 50.5 ± 0.05 s⁻¹ | Km (purified protein [6]): 85 ± 5 µM | kcat (purified protein [6]): 0.65 ± 0.01 s⁻¹ | Km (purified protein [7]): 92 ± 17 µM | kcat (purified protein [7]): 2.77 ± 0.22 s⁻¹ | Km (purified protein [9]): 1330 ± 20 µM | kcat (purified protein [9]): 3.38 ± 0.02 s⁻¹
